Measurements as given in the supplement of paper PMC9112550, “Optimization of the antimicrobial peptide Bac7 by deep mutational scanning” (BMC Biology, 2022).

tested on: Escherichia coli TOP10; test: shrunken log2 fold change of peptide-encoding DNA abundance (4.5 h post-induction vs induction); higher = less antimicrobial activity (less host growth inhibition); details: time post-induction: 4.5 h; library: site-saturation at positions 5, 18, 19, 20
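Further: peptides expressed intracellularly from a pBAD plasmid library in pooled LB shake-flask culture, induced with 0.3% L-arabinose, DNA abundance read by NGS, three biological replicates, DESeq2 with apeglm shrinkage.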

Sequence | shrunken log2 fold change
RRIRARPPRLPRPRPRPNGQPRP | 0.208
RRIRFRPPRLPRPRPRPYVCPRP | -0.301
RRIRWRPPRLPRPRPRPTEHPRP | -0.093
RRIRIRPPRLPRPRPRPRCNPRP | -0.393
RRIRHRPPRLPRPRPRPSRWPRP | 0.102
RRIRYRPPRLPRPRPRPQWVPRP | -0.0081
RRIRHRPPRLPRPRPRPMHGPRP | -0.00804
RRIRGRPPRLPRPRPRPRETPRP | 1.86
RRIRWRPPRLPRPRPRPNPVPRP | -0.266
RRIRHRPPRLPRPRPRPDCLPRP | -0.228
RRIRMRPPRLPRPRPRPMKHPRP | 0.0546
RRIRDRPPRLPRPRPRPGWEPRP | 0.00884
RRIRRRPPRLPRPRPRPAYWPRP | 0.135
RRIRWRPPRLPRPRPRPKSNPRP | -0.164
RRIRKRPPRLPRPRPRPQMNPRP | 0.104
RRIRPRPPRLPRPRPRPQSNPRP | -0.285
RRIRFRPPRLPRPRPRPMPRPRP | 0.513
RRIRLRPPRLPRPRPRPSAHPRP | 0.0318
RRIRCRPPRLPRPRPRPCMFPRP | -0.625
RRIRWRPPRLPRPRPRPPFHPRP | 0.0947
RRIRFRPPRLPRPRPRPQGEPRP | 0.00441
RRIRRRPPRLPRPRPRPVKEPRP | -0.128

Sequence | shrunken log2 fold change
RRIRYRPPRLPRPRPRPIPKPRP | 0.141
RRIRMRPPRLPRPRPRPQTGPRP | -0.0549
RRIRIRPPRLPRPRPRPYFPPRP | -0.909
RRIRTRPPRLPRPRPRPDREPRP | -0.0115
RRIRQRPPRLPRPRPRPTCYPRP | -0.309
RRIRLRPPRLPRPRPRPLAPPRP | 0.274
RRIRTRPPRLPRPRPRPGCNPRP | 0.0386
RRIRARPPRLPRPRPRPDMAPRP | 0.265
RRIRKRPPRLPRPRPRPRCIPRP | -0.187
RRIRCRPPRLPRPRPRPQSTPRP | -0.673
RRIRPRPPRLPRPRPRPGHIPRP | -0.196
RRIRWRPPRLPRPRPRPPFEPRP | 0.765
RRIRKRPPRLPRPRPRPEWGPRP | 0.755
RRIRMRPPRLPRPRPRPEIKPRP | 3.3
RRIRKRPPRLPRPRPRPIVNPRP | 0.219
RRIRGRPPRLPRPRPRPWMTPRP | 0.034
RRIRWRPPRLPRPRPRPCEPPRP | -0.27
RRIRPRPPRLPRPRPRPNRNPRP | -0.352
RRIRYRPPRLPRPRPRPLLSPRP | -0.186
RRIRNRPPRLPRPRPRPGTGPRP | -0.127
RRIRSRPPRLPRPRPRPFGDPRP | -0.0872
RRIRTRPPRLPRPRPRPFCAPRP | -0.00433

Sequence | shrunken log2 fold change
RRIRWRPPRLPRPRPRPFQYPRP | -0.199
RRIRWRPPRLPRPRPRPNQGPRP | 0.0374
RRIRYRPPRLPRPRPRPKCVPRP | 0.0122
RRIRVRPPRLPRPRPRPAPLPRP | 0.255
RRIRHRPPRLPRPRPRPNGGPRP | -0.147
RRIRVRPPRLPRPRPRPFNRPRP | -0.0378
RRIRGRPPRLPRPRPRPWHLPRP | -0.188
RRIRDRPPRLPRPRPRPFCGPRP | 0.258
RRIRMRPPRLPRPRPRPKKFPRP | 0.358
RRIRSRPPRLPRPRPRPIPIPRP | 0.159
RRIRCRPPRLPRPRPRPNYAPRP | -0.0784
RRIRRRPPRLPRPRPRPGSNPRP | 0.0402
RRIRIRPPRLPRPRPRPWETPRP | -0.0306
RRIRHRPPRLPRPRPRPEWIPRP | -0.0632
RRIRARPPRLPRPRPRPSPSPRP | 0.52
RRIRHRPPRLPRPRPRPMWTPRP | -0.126
RRIRHRPPRLPRPRPRPGQEPRP | -0.00664
RRIRQRPPRLPRPRPRPPHEPRP | 0.559
RRIRSRPPRLPRPRPRPSTIPRP | -0.482
RRIRMRPPRLPRPRPRPECCPRP | 3.54
RRIRWRPPRLPRPRPRPSFSPRP | -0.286
RRIRYRPPRLPRPRPRPLDDPRP | -0.115

Sequence | shrunken log2 fold change
RRIRHRPPRLPRPRPRPHVEPRP | -0.0794
RRIRSRPPRLPRPRPRPSTWPRP | -0.301
RRIRRRPPRLPRPRPRPMKYPRP | 0.00758
RRIRHRPPRLPRPRPRPCSSPRP | 0.032
RRIRPRPPRLPRPRPRPMIKPRP | -0.696
RRIRSRPPRLPRPRPRPKNDPRP | -0.372
RRIRCRPPRLPRPRPRPERRPRP | 0.0271
RRIRPRPPRLPRPRPRPHFAPRP | 0.284
RRIRFRPPRLPRPRPRPNHWPRP | -0.131
RRIRWRPPRLPRPRPRPNIAPRP | -0.121
RRIRMRPPRLPRPRPRPQREPRP | 0.203
RRIRTRPPRLPRPRPRPDDMPRP | -0.0233
RRIRNRPPRLPRPRPRPRMHPRP | 0.217
RRIRRRPPRLPRPRPRPYWNPRP | -0.368
RRIRTRPPRLPRPRPRPTEQPRP | 0.303
RRIRDRPPRLPRPRPRPHFLPRP | 0.0122
RRIRDRPPRLPRPRPRPYTHPRP | -0.267
RRIRTRPPRLPRPRPRPSWDPRP | -0.262
RRIRDRPPRLPRPRPRPSEIPRP | -0.167
RRIRQRPPRLPRPRPRPPAMPRP | -0.0312
RRIRSRPPRLPRPRPRPRVAPRP | 0.179
RRIRNRPPRLPRPRPRPCWLPRP | -0.7

Sequence | shrunken log2 fold change
RRIRRRPPRLPRPRPRPLQAPRP | 0.98
RRIRNRPPRLPRPRPRPVWNPRP | -0.0723
RRIRFRPPRLPRPRPRPYDYPRP | -0.107
RRIRNRPPRLPRPRPRPMVMPRP | -0.383
RRIRARPPRLPRPRPRPTSHPRP | -0.016
RRIRSRPPRLPRPRPRPALSPRP | 0.497
RRIRLRPPRLPRPRPRPQMKPRP | -0.0293
RRIRIRPPRLPRPRPRPCHVPRP | -0.401
RRIRFRPPRLPRPRPRPIPFPRP | 2.3
RRIRVRPPRLPRPRPRPFAQPRP | 0.0825
RRIRSRPPRLPRPRPRPSIVPRP | -0.525
RRIRMRPPRLPRPRPRPQPQPRP | 0.717
RRIRVRPPRLPRPRPRPAFVPRP | 0.00544
RRIRKRPPRLPRPRPRPMAPPRP | 0.0811
RRIRERPPRLPRPRPRPCRGPRP | 0.0764
RRIRGRPPRLPRPRPRPEWQPRP | 0.783
RRIRKRPPRLPRPRPRPHYFPRP | -0.268
RRIRARPPRLPRPRPRPGCTPRP | 0.552
RRIRFRPPRLPRPRPRPFATPRP | -0.0942
RRIRCRPPRLPRPRPRPGRFPRP | 0.0435
RRIRARPPRLPRPRPRPTATPRP | 1.2
